Data on 4 substances can be found in publication PMC8755526.

Experiment [1] deals with PLK1-T210E fused to CFP, YFP or mTurquoise 2 (human) (UniProt P53350). The experiment is described as follows: FRET or BRET; FRET by confocal microscopy of fixed HEK293T cells co-transfected with YFP and mTurquoise constructs; 'FRET and co-localization analyzer' ImageJ plug-in.
Experiment [2] addresses endogenous PLK1 of HeLa-PLK1–3xMyc cells (human (endogenous in HeLa)) (UniProt P53350). Nature of the experiment: SEC; lysate of HeLa-PLK1–3xMyc cells synchronized in G2 with the CDK1 inhibitor RO3306; Superose 3.2/300, 50 mM Tris pH 7.5, 150 mM NaCl, 20 mM CHAPS, 1 mM DTT, 4 °C; fractions blotted.
The target of experiment [3] is PLK1 Polo-Box domain (Flag- or Myc-tagged) (human). Nature of the experiment: co-IP; lysates of cells co-expressing differently tagged PLK1 PBD incubated with increasing amounts of purified GST-Bora, then co-IP.
The target in experiment [4] is full-length, wild-type PLK1 (Flag-, Myc- or V5-tagged) (human) (UniProt P53350). Nature of the experiment: cross-linking; BS3 (20:1 crosslinker-protein) added to lysates of HEK293T cells for 30 min, quenched; IPs with anti-V5 and anti-Myc; SDS-PAGE and western blot with PLK1- and Bora-specific antibodies.

Regarding “PLK1-T210E fused to CFP, YFP or mTurquoise 2 (from UniProt P53350 1-603) (enzyme)”, the fold decrease of FRET emission against WT PLK1 in experiment [1] was in the range of 6 to 8 fold.
“endogenous PLK1 of HeLa-PLK1–3xMyc cells (from UniProt P53350 1-603) (enzyme)” had a stoichiometry N in experiment [2] of 2.
In experiment [3], “PLK1 Polo-Box domain (Flag- or Myc-tagged) (domain or fragment)” came in with an increase of co-precipitated PBD with purified GST-Bora added (lane 2) against none (lane 1) of 60%.
“full-length, wild-type PLK1 (Flag-, Myc- or V5-tagged) (from UniProt P53350 1-603) (enzyme)” had a stoichiometry N in experiment [4] of 2.
